From US20190388471A1 (published 2019) come the findings set out here.

The chains are these.
T1: human CD19 (full length, expressed on cells) (human, UniProt P15391 20-556)
T1 construct: whole, on cells; The functional assays used K562 cells transduced to express CD19; also called hsCD19; hCD19
T1 sequence (looked up): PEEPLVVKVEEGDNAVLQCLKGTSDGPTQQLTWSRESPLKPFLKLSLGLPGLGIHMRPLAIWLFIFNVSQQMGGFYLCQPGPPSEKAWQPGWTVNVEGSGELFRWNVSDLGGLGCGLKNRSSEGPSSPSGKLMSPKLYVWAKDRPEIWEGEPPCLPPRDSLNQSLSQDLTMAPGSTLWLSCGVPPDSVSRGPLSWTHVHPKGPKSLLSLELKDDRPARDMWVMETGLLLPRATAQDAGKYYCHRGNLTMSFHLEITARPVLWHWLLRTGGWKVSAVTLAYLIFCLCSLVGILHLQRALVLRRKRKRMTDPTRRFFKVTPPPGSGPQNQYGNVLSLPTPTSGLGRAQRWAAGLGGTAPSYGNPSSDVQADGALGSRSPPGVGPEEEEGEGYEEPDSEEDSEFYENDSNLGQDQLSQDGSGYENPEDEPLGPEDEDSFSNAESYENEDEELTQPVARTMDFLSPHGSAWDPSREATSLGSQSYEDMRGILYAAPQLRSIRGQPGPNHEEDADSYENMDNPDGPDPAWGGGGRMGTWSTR

B1: 103104 CAR 3 Soluble scFv (scFv)
scFv: QVQLQESGPGLVKPSETLSLTCTVSGVSLPDYGVSWIRQPPGKGLEWIGVIWGSETTYYSSSLKSRVTISKDNSKNQVSLKLSSVTAADTAVYYCAKHYYYGGSYAMDYWGQGTLVTVSSGGGGSGGGGSGGGGSEIVMTQSPATLSLSPGERATLSCRASQDISKYLNWYQQKPGQAPRLLIYHTSRLHSGIPARFSGSGSGTDYTLTISSLQPEDFAVYFCQQGNTLPYTFGQGTKLEIKHHHHHHHH
notes: also called CAR3 scFv; humanized scFv
B2: 103106 CAR4 Soluble scFv (scFv)
scFv: QVQLQESGPGLVKPSETLSLTCTVSGVSLPDYGVSWIRQPPGKGLEWIGVIWGSETTYYQSSLKSRVTISKDNSKNQVSLKLSSVTAADTAVYYCAKHYYYGGSYAMDYWGQGTLVTVSSGGGGSGGGGSGGGGSEIVMTQSPATLSLSPGERATLSCRASQDISKYLNWYQQKPGQAPRLLIYHTSRLHSGIPARFSGSGSGTDYTLTISSLQPEDFAVYFCQQGNTLPYTFGQGTKLEIKHHHHHHHH
notes: also called CAR4 scFv; humanized scFv
B3: 103104 CAR12 Soluble scFv (scFv)
scFv: QVQLQESGPGLVKPSETLSLTCTVSGVSLPDYGVSWIRQPPGKGLEWIGVIWGSETTYYNSSLKSRVTISKDNSKNQVSLKLSSVTAADTAVYYCAKHYYYGGSYAMDYWGQGTLVTVSSGGGGSGGGGSGGGGSEIVMTQSPATLSLSPGERATLSCRASQDISKYLNWYQQKPGQAPRLLIYHTSRLHSGIPARFSGSGSGTDYTLTISSLQPEDFAVYFCQQGNTLPYTFGQGTKLEIKHHHHHHHH
notes: The clone number 103104 is printed for both CAR3 and CAR12; also called CAR12 scFv; humanized scFv
B4: 100796 CAR7 Soluble scFv (scFv)
scFv: QVQLQESGPGLVKPSETLSLTCTVSGVSLPDYGVSWIRQPPGKGLEWIGVIWGSETTYYSSSLKSRVTISKDNSKNQVSLKLSSVTAADTAVYYCAKHYYYGGSYAMDYWGQGTLVTVSSGGGGSGGGGSGGGGSGGGGSEIVMTQSPATLSLSPGERATLSCRASQDISKYLNWYQQKPGQAPRLLIYHTSRLHSGIPARFSGSGSGTDYTLTISSLQPEDFAVYFCQQGNTLPYTFGQGTKLEIKHHHHHHHH
notes: also called CAR7 scFv; humanized scFv
B5: 100798 CAR8 Soluble scFv (scFv)
scFv: QVQLQESGPGLVKPSETLSLTCTVSGVSLPDYGVSWIRQPPGKGLEWIGVIWGSETTYYQSSLKSRVTISKDNSKNQVSLKLSSVTAADTAVYYCAKHYYYGGSYAMDYWGQGTLVTVSSGGGGSGGGGSGGGGSGGGGSEIVMTQSPATLSLSPGERATLSCRASQDISKYLNWYQQKPGQAPRLLIYHTSRLHSGIPARFSGSGSGTDYTLTISSLQPEDFAVYFCQQGNTLPYTFGQGTKLEIKHHHHHHHH
notes: also called CAR8 scFv; humanized scFv
B6: 100796 CAR10 Soluble scFv (scFv)
scFv: QVQLQESGPGLVKPSETLSLTCTVSGVSLPDYGVSWIRQPPGKGLEWIGVIWGSETTYYNSSLKSRVTISKDNSKNQVSLKLSSVTAADTAVYYCAKHYYYGGSYAMDYWGQGTLVTVSSGGGGSGGGGSGGGGSGGGGSEIVMTQSPATLSLSPGERATLSCRASQDISKYLNWYQQKPGQAPRLLIYHTSRLHSGIPARFSGSGSGTDYTLTISSLQPEDFAVYFCQQGNTLPYTFGQGTKLEIKHHHHHHHH
notes: The clone number 100796 is printed for both CAR7 and CAR10; also called CAR10 scFv; humanized scFv
B7: 99789 CAR5 Soluble scFv (scFv)
scFv: EIVMTQSPATLSLSPGERATLSCRASQDISKYLNWYQQKPGQAPRLLIYHTSRLHSGIPARFSGSGSGTDYTLTISSLQPEDFAVYFCQQGNTLPYTFGQGTKLEIKGGGGSGGGGSGGGGSGGGGSQVQLQESGPGLVKPSETLSLTCTVSGVSLPDYGVSWIRQPPGKGLEWIGVIWGSETTYYSSSLKSRVTISKDNSKNQVSLKLSSVTAADTAVYYCAKHYYYGGSYAMDYWGQGTLVTVSSHHHHHHHH
notes: also called CAR5 scFv; humanized scFv
B8: 99789 CAR9 Soluble scFv (scFv)
scFv: EIVMTQSPATLSLSPGERATLSCRASQDISKYLNWYQQKPGQAPRLLIYHTSRLHSGIPARFSGSGSGTDYTLTISSLQPEDFAVYFCQQGNTLPYTFGQGTKLEIKGGGGSGGGGSGGGGSGGGGSQVQLQESGPGLVKPSETLSLTCTVSGVSLPDYGVSWIRQPPGKGLEWIGVIWGSETTYYNSSLKSRVTISKDNSKNQVSLKLSSVTAADTAVYYCAKHYYYGGSYAMDYWGQGTLVTVSSHHHHHHHH
notes: The clone number 99789 is printed for both CAR5 and CAR9; also called CAR9 scFv; humanized scFv
B9: 99790 CAR6 Soluble scFv (scFv)
scFv: EIVMTQSPATLSLSPGERATLSCRASQDISKYLNWYQQKPGQAPRLLIYHTSRLHSGIPARFSGSGSGTDYTLTISSLQPEDFAVYFCQQGNTLPYTFGQGTKLEIKGGGGSGGGGSGGGGSGGGGSQVQLQESGPGLVKPSETLSLTCTVSGVSLPDYGVSWIRQPPGKGLEWIGVIWGSETTYYQSSLKSRVTISKDNSKNQVSLKLSSVTAADTAVYYCAKHYYYGGSYAMDYWGQGTLVTVSSHHHHHHHH
notes: also called CAR6 scFv; humanized scFv
B10: 103101 CAR1 Soluble scFv (scFv)
scFv: EIVMTQSPATLSLSPGERATLSCRASQDISKYLNWYQQKPGQAPRLLIYHTSRLHSGIPARFSGSGSGTDYTLTISSLQPEDFAVYFCQQGNTLPYTFGQGTKLEIKGGGGSGGGGSGGGGSQVQLQESGPGLVKPSETLSLTCTVSGVSLPDYGVSWIRQPPGKGLEWIGVIWGSETTYYSSSLKSRVTISKDNSKNQVSLKLSSVTAADTAVYYCAKHYYYGGSYAMDYWGQGTLVTVSSHHHHHHHH
notes: It is built here as scFv domain plus His tag; also called CAR1 scFv; humanized scFv
B11: 103101 CAR11 Soluble scFv (scFv)
scFv: EIVMTQSPATLSLSPGERATLSCRASQDISKYLNWYQQKPGQAPRLLIYHTSRLHSGIPARFSGSGSGTDYTLTISSLQPEDFAVYFCQQGNTLPYTFGQGTKLEIKGGGGSGGGGSGGGGSQVQLQESGPGLVKPSETLSLTCTVSGVSLPDYGVSWIRQPPGKGLEWIGVIWGSETTYYNSSLKSRVTISKDNSKNQVSLKLSSVTAADTAVYYCAKHYYYGGSYAMDYWGQGTLVTVSSHHHHHHHH
notes: The clone number 103101 is printed for both CAR1 and CAR11; also called CAR11 scFv; 103101-WT (S/N)
B12: 103102 CAR2 Soluble scFv (scFv)
scFv: EIVMTQSPATLSLSPGERATLSCRASQDISKYLNWYQQKPGQAPRLLIYHTSRLHSGIPARFSGSGSGTDYTLTISSLQPEDFAVYFCQQGNTLPYTFGQGTKLEIKGGGGSGGGGSGGGGSQVQLQESGPGLVKPSETLSLTCTVSGVSLPDYGVSWIRQPPGKGLEWIGVIWGSETTYYQSSLKSRVTISKDNSKNQVSLKLSSVTAADTAVYYCAKHYYYGGSYAMDYWGQGTLVTVSSHHHHHHHH
notes: also called CAR2 scFv; humanized scFv

The assay deals with T1, human CD19 (full length, expressed on …). The assay can be described thus: flow cytometry; His-tagged soluble scFv on mouse cell line 300 expressing hCD19. The method, then:
Mouse cell line 300.CD19 were grown in RPMI 1640 with 0.5 mg/ml Zeocin. Around 5e5 cells/per well were transferred to the BD Falcon 96 well plate. The cells were spin down at 900 rpm (Sorval Legend XT centrifuge) for 3 minutes. The supernatant were removed. Anti-CD19 scFv protein samples were diluted in DPBS with 5% FBS. The samples were added into the wells, mixed well with the cells and incubated for 1 hour. The cells were washed twice in the DPBS with 5% FBS. The cells were incubated with antipoly His PE (R&D) for 1 hour, washed twice before FACS analysis (LSRII from BD Biosciences).
(In flow cytometry, cells or beads pass a laser one at a time.)
B1: the binding result was “binds”. Then B2, with “binds”.

On to B3, for which the binding result is on record as “binds”. Then B4, with “binds”; and B5, with “binds”. B6: the binding result is on record as “binds”. As for B7, the entry is “binds”. Regarding B8, the binding result is given as “binds”. For B9, the binding result is listed as “binds”. Then B10, with “binds”. As for B11, the binding result is given as “binds”. Then B12, with “binds”.
